Laboratory results taken from patent US20220153848A1 (DRAGONFLY THERAPEUTICS, published 2022).

The binders below were run against c-MET on the surface of HT29 and HCT-116 human colon cancer cells (human, UniProt P08581 25-1390) (assay: cell-based or functional assay).
Sequence of c-MET on the surface of HT29 and HCT-116 human colon cancer cells (P08581 25-1390 limits assumed): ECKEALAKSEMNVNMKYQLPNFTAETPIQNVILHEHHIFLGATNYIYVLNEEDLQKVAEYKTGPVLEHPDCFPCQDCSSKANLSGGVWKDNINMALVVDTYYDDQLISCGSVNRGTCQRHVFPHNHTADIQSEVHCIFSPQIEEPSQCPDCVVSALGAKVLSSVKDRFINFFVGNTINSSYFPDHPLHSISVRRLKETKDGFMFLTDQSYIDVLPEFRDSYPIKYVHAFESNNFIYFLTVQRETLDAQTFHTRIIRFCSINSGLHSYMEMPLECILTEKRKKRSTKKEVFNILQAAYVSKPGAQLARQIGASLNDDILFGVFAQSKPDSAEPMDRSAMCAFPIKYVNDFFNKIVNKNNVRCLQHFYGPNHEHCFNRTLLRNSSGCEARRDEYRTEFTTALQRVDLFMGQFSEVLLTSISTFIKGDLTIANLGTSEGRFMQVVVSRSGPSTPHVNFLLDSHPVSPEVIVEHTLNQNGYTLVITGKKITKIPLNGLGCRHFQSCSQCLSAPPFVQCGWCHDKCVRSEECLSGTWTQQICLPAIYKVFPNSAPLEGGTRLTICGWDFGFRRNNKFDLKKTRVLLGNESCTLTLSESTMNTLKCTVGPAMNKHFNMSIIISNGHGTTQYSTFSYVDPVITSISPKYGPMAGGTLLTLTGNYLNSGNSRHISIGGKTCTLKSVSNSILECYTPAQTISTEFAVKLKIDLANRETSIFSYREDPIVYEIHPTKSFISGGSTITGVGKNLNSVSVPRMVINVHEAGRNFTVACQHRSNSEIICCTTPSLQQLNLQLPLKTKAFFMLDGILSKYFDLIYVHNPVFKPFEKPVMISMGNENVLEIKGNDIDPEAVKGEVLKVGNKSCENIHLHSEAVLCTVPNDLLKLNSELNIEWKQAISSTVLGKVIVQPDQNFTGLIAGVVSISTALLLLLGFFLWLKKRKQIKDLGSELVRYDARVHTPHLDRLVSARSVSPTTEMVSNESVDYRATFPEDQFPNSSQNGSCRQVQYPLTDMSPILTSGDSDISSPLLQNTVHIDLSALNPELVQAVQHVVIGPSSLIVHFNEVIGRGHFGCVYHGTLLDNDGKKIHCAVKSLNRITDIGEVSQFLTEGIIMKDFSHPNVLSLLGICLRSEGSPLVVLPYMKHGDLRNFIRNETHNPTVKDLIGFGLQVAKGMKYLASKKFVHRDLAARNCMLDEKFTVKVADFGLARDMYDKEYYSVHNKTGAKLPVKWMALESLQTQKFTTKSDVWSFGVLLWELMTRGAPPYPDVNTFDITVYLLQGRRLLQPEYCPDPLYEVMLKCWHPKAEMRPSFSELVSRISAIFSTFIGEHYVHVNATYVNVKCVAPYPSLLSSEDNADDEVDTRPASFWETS

Binder | EC50 of human NK cell lysis of c-MET positive target cells (DELFIA cytotoxicity assay) [nM]
A49MI-Duobody-TriNKET-Onartuzumab (bispecific antibody, human IgG1, kappa) heavy 1: not shown light 1: DIQMTQSPSSLSASVGDRVTITCKSSQSLLYTSSQKNYLAWYQQKPGKAPKLLIYWASTRESGVPSRFSGSGSGTDFTLTISSLQPEDFATYYCQQYYAYPWTFGQGTKVEIKRTVAAPSVFIFPPSDEQLKSGTASVVCLLNNFYPREAKVQWKVDNALQSGNSQESVTEQDSKDSTYSLSSTLTLSKADYEKHKVYACEVTHQGLSSPVTKSFNRGEC heavy 2: not shown light 2: DIQMTQSPSSVSASVGDRVTITCRASQGISSWLAWYQQKPGKAPKLLIYAASSLQSGVPSRFSGSGSGTDFTLTISSLQPEDFATYYCQQGVSFPRTFGGGTKVEIKRTVAAPSVFIFPPSDEQLKSGTASVVCLLNNFYPREAKVQWKVDNALQSGNSQESVTEQDSKDSTYSLSSTLTLSKADYEKHKVYACEVTHQGLSSPVTKSFNRGEC | < 1
A49MI-Duobody-TriNKET-ABT-700 (bispecific antibody, human IgG1, kappa) heavy 1: not shown light 1: not shown heavy 2: not shown light 2: DIQMTQSPSSVSASVGDRVTITCRASQGISSWLAWYQQKPGKAPKLLIYAASSLQSGVPSRFSGSGSGTDFTLTISSLQPEDFATYYCQQGVSFPRTFGGGTKVEIKRTVAAPSVFIFPPSDEQLKSGTASVVCLLNNFYPREAKVQWKVDNALQSGNSQESVTEQDSKDSTYSLSSTLTLSKADYEKHKVYACEVTHQGLSSPVTKSFNRGEC | < 1
A49MI-Duobody-TriNKET-Emibetuzumab (bispecific antibody, human IgG1, kappa) heavy 1: not shown light 1: DIQMTQSPSSLSASVGDRVTITCSVSSSVSSIYLHWYQQKPGKAPKLLIYSTSNLASGVPSRFSGSGSGTDFTLTISSLQPEDFATYYCQVYSGYPLTFGGGTKVEIKRTVAAPSVFIFPPSDEQLKSGTASVVCLLNNFYPREAKVQWKVDNALQSGNSQESVTEQDSKDSTYSLSSTLTLSKADYEKHKVYACEVTHQGLSSPVTKSFNRGEC heavy 2: not shown light 2: DIQMTQSPSSVSASVGDRVTITCRASQGISSWLAWYQQKPGKAPKLLIYAASSLQSGVPSRFSGSGSGTDFTLTISSLQPEDFATYYCQQGVSFPRTFGGGTKVEIKRTVAAPSVFIFPPSDEQLKSGTASVVCLLNNFYPREAKVQWKVDNALQSGNSQESVTEQDSKDSTYSLSSTLTLSKADYEKHKVYACEVTHQGLSSPVTKSFNRGEC | < 1
